Results published in article PMC3507626, “The Crystal Structure of the Intact E. coli RelBE Toxin-Antitoxin Complex Provides the Structural Basis for Conditional Cooperativity” (Structure(London, England:1993), 2012).

Tests used:
[1] = molecular target: the molecule itself; assay: not stated; isolated RelB and isolated RelE in solution; data not shown
[2] = molecular target: T1, Escherichia coli RelE R81A (untagged, full-length toxin) (Escherichia coli, UniProt P0C077 1-95, R81A); assay: crystal structure; RelB2E2 reconstituted from purified RelB and RelE R81A; crystals at 4°C, 1.6-2.0 M ammonium sulfate, 0.1 M Na acetate pH 4.6; space group P6(1)22; 2.8 Å; settings: both partners purified
T1 construct: RelE toxin of the relBE locus, Escherichia coli, 95 residues, R81A active-site mutant; also called R81A active-site mutant
T1 sequence (looked up): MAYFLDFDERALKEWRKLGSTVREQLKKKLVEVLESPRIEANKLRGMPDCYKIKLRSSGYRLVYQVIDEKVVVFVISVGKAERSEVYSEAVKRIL

B1: Escherichia coli RelB (untagged, intact antitoxin) (natural protein, UniProt P0C079 1-79, looked up)
chain: MGSINLRIDDELKARSYAALEKMGVTPSEALRLMLEYIADNERLPFKQTLLSDEDAELVEIVKERLRNPKPVRVTLDEL
notes: RelB antitoxin of the relBE locus, Escherichia coli, 79 residues (residues 2-79 of 79 seen in the structure); Untagged; Details of purification are in the Supplemental Experimental Procedures; source: E. coli, plasmid pSC2524HE encoding His-tagged RelE R81A and untagged RelB; purified by denaturation, ion exchange, gel filtration
[1]
  stoichiometry N: 4
[2]
  binding result: binds
